In US20100151003A1:
Bridges are numbered along the chain shown (N, C = ends). Where no end group is shown, it is not given here. DSPE = distearoylphosphatidylethanolamine; PEG3400 = polyethylene glycol, 3400 Da; PEG = not defined here

Legend:
[1] = biological target: human EGFR on tumor cells (human) (UniProt P00533); test: FACS, A431 cells preincubated with 2 ug EGF, 2 uM bio-P190:avidin complex, 4 °C
[2] = biological target: human EGFR on tumor cells (human) (UniProt P00533); test: cell-based or functional assay

Row | staining, fold over background (fold over background) [1] | Binder | IC50 D4 (ug/ml), cell killing of MDA-MB-468 cells, 1 h treatment [2] [µg/mL] | IC50 D6 (ug/ml), cell killing of MDA-MB-468 cells, 1 h treatment [2] [µg/mL]
1 | 20 | DPCTWEVWGRECLQ-{PEG-biotin} (disulfide 3-12 (inferred); reading uncertain) [Biotinylated-PEGylated P190] |  | 
2 |  | {DSPE-PEG3400}-DPCTWEVWGRECLQ (disulfide 3-12; not fully specified; also: inserted in liposomes) [P190-PEG-DSPE conjugate inserted in STEALTH liposomes] | 120 | 35
